# In US12466853B2, “Selective targeting of apoptosis proteins by structurally-stabilized and/or cysteine-reactive NOXA peptides” (priority 2017, dated 2025):
# Substitutions are numbered along the chain they refer to. Positions of bridges follow the written chain, without caps; N, C: chain ends. Non-standard residues stand in square brackets, D forms with d. No end group written: not given here. R8 = C=CCCCCCC[C@@](C)(N)C(=O)O; S5 = C=CCCC[C@](C)(N)C(=O)O
# Assays:
# His-BFL-1ΔC = target: T1, His-BFL-1ΔC (Homo sapiens, UniProt Q16548); test: Streptavidin pulldown from recombinant protein mixture, BFL-1; type: binding; conditions: equimolar mixture of recombinant MCL-1, BCL-XL, BFL-1 and biotinylated SAHB, silver stain
# T1 construct: Recombinant anti-apoptotic BFL-1ΔC (aa 1-151) and its cysteine to serine mutants were cloned into PET17b; made in house; host or cells: Escherichia coli LOBSTR BL21(DE3)
# T1 sequence (Q16548 1-151): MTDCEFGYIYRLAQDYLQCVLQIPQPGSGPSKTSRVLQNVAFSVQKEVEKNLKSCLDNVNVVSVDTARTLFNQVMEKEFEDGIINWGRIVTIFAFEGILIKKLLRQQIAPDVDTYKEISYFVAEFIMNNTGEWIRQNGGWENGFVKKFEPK
# Experimental: (§1) WT His-BFL-1ΔC, BCL-XLΔC (tagless), and GST-MCL-1ΔNΔC (1 μM each) were combined and incubated with 3 mM DTT in PBS for thirty minutes at room temperature. Mixtures were treated with vehicle or the indicated C-terminally biotinylated NOXA SAHB (1 μM) for four hours and were then added to 30 μL PBS-washed high-capacity streptavidin (SA) agarose beads (Thermo Fisher Pierce) and incubated with rotation at room temperature for two hours. The beads were then washed three times with NP-40 lysis buffer (1% NP-40, 50 mM Tris pH 8, 100 mM NaCl, 2.5 mM MgCl2) and three times with PBS. To elute bound protein, beads were boiled for ten minutes with 10% SDS containing 10 mg/mL biotin. After elution, samples were boiled with 3×LDS and 2M DTT for twenty minutes. Gel electrophoresis using a 12% Bis-Tris gel was conducted on inputs (2%) and eluates (5 μL) and gels were developed using the Pierce silver staining kit (Thermo Fisher).
# BCL-XLΔC (tagless) = target: T2, BCL-XLΔC (tagless) (Homo sapiens, UniProt Q07817); test: Streptavidin pulldown from recombinant protein mixture, BCL-XL; type: binding; conditions: equimolar mixture of recombinant MCL-1, BCL-XL, BFL-1 and biotinylated SAHB, silver stain
# T2 construct: Recombinant anti-apoptotic BCL-XLΔC (aa 1-212) and MCL-1ΔNΔC (aa 172-329); GST (N, cleaved yes); made in house; host or cells: Escherichia coli BL21(DE3)
# T2 sequence (Q07817 1-212, stated change not applied): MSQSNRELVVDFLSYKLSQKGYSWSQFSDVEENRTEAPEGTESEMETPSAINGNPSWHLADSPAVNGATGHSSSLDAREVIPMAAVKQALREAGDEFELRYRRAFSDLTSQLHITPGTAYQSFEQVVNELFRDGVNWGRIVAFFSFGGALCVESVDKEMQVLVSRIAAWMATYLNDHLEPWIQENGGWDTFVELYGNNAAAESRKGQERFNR
# Experimental: as §1
# [1] = target: T3, HA-BFL-1ΔC C4S/C19S / tBID (Homo sapiens, UniProt Q16548, C19S/C4S); test: BFL-1/BH3 complex disruption: competition with tBID in 293T lysates; type: binding; conditions: anti-HA immunoprecipitation
# T3 construct: Recombinant anti-apoptotic BFL-1ΔC (aa 1-151) and its cysteine to serine mutants were cloned into PET17b; expressed in transfected cells; host or cells: 293T (lysate)
# T3 sequence (Q16548 1-151 C4S/C19S): T1 sequence (Q16548 1-151) with C4S, C19S
# Experimental: (§2) To evaluate the capacity of biotinylated SAHBs to compete with tBID for interactions with BFL-1 and MCL-1, 293T cells were transfected with either HA-BFL-1ΔC C4S/C19S or FLAG-MCL-1 in the p3XFLAG-CMV-10 vector (Sigma) as above. After 24 hr, cells were trypsinized, washed with PBS, lysed in 1% CHAPS buffer, and the supernatant collected for protein concentration determination by BCA kit. Lysate samples (0.5 mg) were incubated with 0.25 μM recombinant tBID (R&D Systems) and 5 μM biotinylated NOXA SAHBs for 6 h at RT. The mixtures were then subjected to HA or FLAG immunoprecipitation, followed by western analysis using 1:1000 dilutions of HA (Sigma Aldrich, #12CA5), FLAG (Sigma-Aldrich, F7425), and BID (Santa Cruz sc-11423) antibodies.
# GST-MCL-1ΔNΔC = target: T4, GST-MCL-1ΔNΔC (Homo sapiens, UniProt Q07820); test: Streptavidin pulldown from recombinant protein mixture, MCL-1; type: binding; conditions: equimolar mixture of recombinant MCL-1, BCL-XL, BFL-1 and biotinylated SAHB, silver stain
# T4 construct: BCL-XLΔC (aa 1-212) and MCL-1ΔNΔC (aa 172-329) were cloned into the PGEX-4T-1; made in house; host or cells: Escherichia coli BL21(DE3)
# T4 sequence (Q07820 172-329, stated change not applied): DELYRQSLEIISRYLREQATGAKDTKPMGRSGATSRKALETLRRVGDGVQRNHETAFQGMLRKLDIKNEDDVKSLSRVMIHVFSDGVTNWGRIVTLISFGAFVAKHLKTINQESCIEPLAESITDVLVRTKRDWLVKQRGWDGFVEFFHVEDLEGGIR
# Experimental: as §1
# MCL-1 = target: T5, MCL-1 (Homo sapiens, UniProt Q07820); test: MCL-1 engagement in A375P lysates (streptavidin pulldown, MCL-1 western); type: binding; conditions: biotinylated SAHB
# T5 construct: endogenous protein in lysates from the A375P melanoma cell line; endogenous in cells; host or cells: A375P melanoma cells (lysate)
# Experimental: (§3) Cultured A375P and U937 cells were trypsinized or harvested, respectively, washed with PBS, and lysed by incubating with 1% CHAPS lysis buffer (1% CHAPS, 150 mM NaCl, 50 mM Tris pH 7.4, 100 μM DTT). The protein concentrations of the soluble fraction were measured using a BCA kit according to the manufacturer's instructions (Thermo Scientific). Lysate samples (1 mg) were incubated with vehicle or C-terminally biotinylated NOXA SAHBs (30 μM) overnight in 1% CHAPS lysis buffer at 4° C. Biotin capture was accomplished by incubating the mixture with high-capacity SA agarose (Thermo Scientific) for 2 hours at 4° C., followed by centrifugation and washing the pelleted beads three times with lysis buffer (1 mL). Bead-bound proteins were eluted by boiling in 10% SDS containing 10 mg/mL biotin for 10 minutes and then subjected to electrophoresis and western blotting using BFL-1 (Abcam, #125259) and MCL-1 (Rockland #600-401-394S) antibodies.
# FLAG-MCL-1 / tBID = target: T6, FLAG-MCL-1 / tBID (Homo sapiens, UniProt Q07820); test: MCL-1/tBID complex disruption in 293T lysates; type: binding; conditions: FLAG immunoprecipitation
# T6 construct: expressed in transfected cells; host or cells: 293T (lysate)
# T6 sequence (Q07820 whole entry): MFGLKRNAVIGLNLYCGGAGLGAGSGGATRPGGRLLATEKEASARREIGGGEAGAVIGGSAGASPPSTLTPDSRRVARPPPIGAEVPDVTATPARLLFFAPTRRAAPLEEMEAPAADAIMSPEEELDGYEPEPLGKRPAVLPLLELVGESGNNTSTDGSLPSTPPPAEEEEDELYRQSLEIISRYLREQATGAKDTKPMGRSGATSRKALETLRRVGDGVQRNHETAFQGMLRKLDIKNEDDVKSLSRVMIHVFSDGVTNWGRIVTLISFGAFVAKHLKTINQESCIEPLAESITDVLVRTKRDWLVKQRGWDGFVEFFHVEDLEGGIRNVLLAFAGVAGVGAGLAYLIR
# Experimental: as §2
# full-length BFL-1 = target: T7, full-length BFL-1 (Homo sapiens, UniProt Q16548); test: Covalent crosslinking to full-length BFL-1, recombinant and HA-tagged expressed in 293T cells; type: binding; conditions: recombinant and expressed in 293T cells; somewhat reduced efficiency vs C-terminally truncated species
# T7 construct: Recombinant full-length BFL-1 (aa-175) containing an N-terminal hexahistidine tag; made in house
# T7 sequence (Q16548 1-175): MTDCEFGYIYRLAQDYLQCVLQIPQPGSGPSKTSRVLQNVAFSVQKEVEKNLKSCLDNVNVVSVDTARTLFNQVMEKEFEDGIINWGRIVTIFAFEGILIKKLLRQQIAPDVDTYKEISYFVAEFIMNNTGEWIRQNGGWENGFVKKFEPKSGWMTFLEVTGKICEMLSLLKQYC
# Excerpt: We confirmed that both of our lead constructs could covalently crosslink to full-length BFL-1 protein, which bears a C-terminal helix that could potentially compete with D-NA-NOXA SAHBs for interaction at the canonical BH3-binding pocket in cancer cells. We generated recombinant full-length BFL-1 and expressed HA-tagged full-length BFL-1 in 293T cells, and then conducted crosslinking analyses in vitro and in treated cells, respectively.
# Recombinant full-length BFL-1 (aa-175) containing an N-terminal hexahistidine tag was cloned into the PTYB1 vector (New England Biolabs) and purified as above except for the addition of a chitin affinity chromatography and DTT elution step. Protein purity and identity was confirmed by Coomassie staining and western blot analysis using a mouse monoclonal anti-His6 tag antibody (Abcam).
# His-BFL-1ΔC C4S/C19S protein (5 μM) was pre-treated with 10 mM DTT in 50 mM Tris (pH 8.0) and 100 mM NaCl for 30 min at room temperature (final volume […]) and then combined with a 10:1 molar ratio of cysteine-reactive NOXA SAHB for an additional 1-hr incubation at room temperature. The samples were then boiled in 3× loading buffer with DTT and electrophoresed on 12% Bis-Tris gel, then subjected to Coomassie staining.
# native BFL-1 = target: T8, native BFL-1 (Homo sapiens, UniProt Q16548); test: BFL-1 targeting in A375P lysates (streptavidin pulldown, BFL-1 western); type: binding; conditions: biotinylated SAHB, compared to acetylated construct
# T8 construct: endogenous in cells; host or cells: A375P melanoma cells (A10); U937 AML cells (A12), lysates
# T8 sequence (Q16548 1-175): T7 sequence (Q16548 1-175)
# Experimental: as §3
# MV4;11 cells = test: Cell viability (CellTiter-Glo) and CalcuSyn synergy, MV4;11
# Experimental: (§4) Cell viability and caspase-3/7 activation was measured using CellTiter-Glo and Caspase-Glo 3/7 chemiluminescence reagents (Promega), respectively, and luminescence was detected by a Spectramax M5 microplate reader. Synergy of drug interactions was calculated using the CalcuSyn software (Biosoft).
# U937 cells = test: Cell viability (CellTiter-Glo) and CalcuSyn synergy, U937; conditions: U937 cells (BFL-1-dependent)
# Experimental: as §4
# BCL-XLΔC / FITC-BID BH3 = target: T9, BCL-XLΔC / FITC-BID BH3 (Homo sapiens, UniProt Q07817); test: Competitive fluorescence polarization binding assay, BCL-XLΔC
# T9 construct: Recombinant anti-apoptotic BCL-XLΔC (aa 1-212) and MCL-1ΔNΔC (aa 172-329); GST (N, cleaved yes); made in house; host or cells: Escherichia coli BL21(DE3)
# T9 sequence (Q07817 1-212, stated change not applied): as the sequence (Q07817 1-212, stated change not applied) above
# Experimental: (§5) Fluorescence polarization (FP) assays were performed as previously described (Pitter et al., 2008 (supra)). Briefly, direct binding curves were first generated by FITC-BID BH3 (25 nM) with serial dilutions of anti-apoptotic protein, and FP was measured at 5 min on a SpectraMax M5 microplate reader (Molecular Devices). For competition assays, a serial dilution of acetylated or warhead-bearing NOXA SAHB was added to the indicated recombinant protein at ˜EC75 concentration, as determined by the direct binding assay. FITC-BID BH3 (25 nM) was then added and fluorescence polarization was measured at equilibrium. IC50 values were calculated by nonlinear regression analysis of competitive binding curves using PRISM software (GraphPad).
# [2] = target: T10, BFL-1ΔC C4S/C19S/C55S / FITC-BID BH3 (Homo sapiens, UniProt Q16548, C19S/C4S/C55S); test: Competitive fluorescence polarization binding assay, BFL-1ΔC C4S/C19S/C55S
# T10 construct: Recombinant anti-apoptotic BFL-1ΔC (aa 1-151) and its cysteine to serine mutants were cloned into PET17b; hexahistidine (N); made in house; host or cells: Escherichia coli LOBSTR BL21(DE3)
# T10 sequence (Q16548 1-151 C4S/C19S/C55S): T1 sequence (Q16548 1-151) with C4S, C19S, C55S
# Experimental: as §5
Compound,BFL-1 binding / pull down (His-BFL-1ΔC),competition with tBID for HA-BFL-1ΔC C4S/C19S interaction [1],MCL-1 engagement (MCL-1),dissociation of FLAG-MCL-1/tBID interaction (FLAG-MCL-1 / tBID),further results
"AT8LRRAGDXLNFRQ (AT[R8]LRRAGD[S5]LNFRQ; staple 3-10; not fully specified (N-terminus); printed as AT8LRRAGDXLNFRQ) [Ac-NOXA-15 F32A, acetylated counterpart of D-NA-NOXA-15 F32A]",no binding,incapable of competing with tBID for HA-BFL-1 binding,approximately equivalent binding to MCL-1,neither D-NA- nor Ac-NOXA15 F32A is able to dissociate the interaction,BCL-XL binding / pull down (BCL-XLΔC (tagless)): no binding; MCL-1 binding / pull down (GST-MCL-1ΔNΔC): detectable but minimal direct interaction
JAT8LRRAGDXLNFRQ [D-NA-NOXA-15 F32A],striking competitive advantage for BFL-1 targeting over its acetylated counterpart,near total inhibition of tBID co-immunoprecipitation,approximately equivalent binding to MCL-1,neither D-NA- nor Ac-NOXA15 F32A is able to dissociate the interaction,covalent crosslinking to full-length BFL-1 (full-length BFL-1): covalent crosslinking to recombinant and expressed full-length BFL-1; BFL-1 binding / pull down (His-BFL-1ΔC; listed as D-NA-NOXA-15 F32A SAHB): notably more BFL-1 engagement; targeting of native BFL-1 (native BFL-1): enhanced targeting of native BFL-1
Cc1c(-c2c(-c3ccc(F)o3)sc3ncnc(O[C@H](Cc4ccccc4OCc4ccnn4CC(F)(F)F)C(=O)O)c23)ccc(OCCN2CCN(C)CC2)c1Cl [S63845],,,,,"cytotoxic synergy upon co-treatment (MV4;11 cells; MV4;11 cells (not dependent on BFL-1)): synergy in combination with ATM inhibition; cytotoxicity, single agent (MV4;11 cells; MV4;11 cells (not dependent on BFL-1, dependent on MCL-1)): single agent activity; cytotoxicity, single agent (U937 cells): no activity"
"AT8LREFGDXLNFRQ (AT[R8]LREFGD[S5]LNFRQ; staple 3-10 (inferred); not fully specified (N-terminus); printed as AT8LREFGDXLNFRQ) [Ac-NOXA-15 R31E, acetylated counterpart of D-NA-NOXA-15 R31E]",,,approximately equivalent binding to MCL-1,neither D-NA- nor Ac-NOXA15 R31E is able to dissociate the interaction,competition for FITC-BID BH3 binding to BCL-XLΔC (BCL-XLΔC / FITC-BID BH3): neither Ac- nor D-NA-NOXA-15 R31E is able to compete; competition for FITC-BID BH3 binding to BFL-1ΔC C4S/C19S/C55S [2]: neither D-NA- nor Ac-NOXA15 R31E competes
"*AT8LRRFGDXLNFRQ [Ac-NOXA SAHB, acetyl-capped i, i+7-stapled NOXA BH3 peptide (aa 26-40)]",little to no interaction with BFL-1,,,,
